Test results reported in publication PMC7969015 (Nucleic Acids Research, 2021).
One block for each molecule: values may come before it.

Key:
Test in all cases: SEC
[1] = target: hGTPBP3 G domain (G249-P426) (human)
[2] = target: hGTPBP3 G domain A322P (human)
[3] = target: hGTPBP3 G domain P257H (human)
[4] = target: hGTPBP3 G domain ΔG312-V319 (human)
[5] = target: mature hGTPBP3 (hGTPBP3-ΔN20, T21-K492) (human)
[6] = target: ΔN-hGTPBP3 (N154-K492) (human)
SEC = target: the molecule itself

Molecule: hGTPBP3 G domain (G249-P426) (domain or fragment)
stoichiometry N [1]: 2

Molecule: hGTPBP3 G domain ΔG312-V319 (domain or fragment)
stoichiometry N [4]: 2

B1: EcMnmE G domain (G216-G384) (domain or fragment, Escherichia coli, UniProt P25522 216-384, looked up)
chain: GMKVVIAGRPNAGKSSLLNALAGREAAIVTDIAGTTRDVLREHIHIDGMPLHIIDTAGLREASDEVERIGIERAWQEIEQADRVLFMVDGTTTDAVDPAEIWPEFIARLPAKLPITVVRNKADITGETLGMSEVNGHALIRLSARTGEGVDVLRNHLKQSMGFDTNMEG
stoichiometry N (SEC): 2

Next, values leading:

stoichiometry N [2]: 2
Molecule: hGTPBP3 G domain A322P (domain or fragment)

stoichiometry N [3]: 2
Molecule: hGTPBP3 G domain P257H (domain or fragment)

stoichiometry N [5]: 2
Molecule: mature hGTPBP3 (hGTPBP3-ΔN20, T21-K492) (enzyme)

stoichiometry N [6]: 2
Molecule: ΔN-hGTPBP3 (N154-K492) (domain or fragment)
